Source: the supplement of paper PMC10126150
± gives the standard deviation of the averaged measurements.

Test system: ATP
Assay: switch fluorescence ratio, 500 uM ATP over buffer (Cy3 cluster intensity, sum of 5 cycles each) (fold (ratio)); higher = stronger signal-on switching upon ATP binding; sequences stand for … in TCGTCGGCAGCGTCAGATGTGTATAAGAGACAGTTTTTTTTTTTTTTTTTTTTTTTTT…TC
Conditions: aptamer strand: ATP DNA aptamer (quencher-CACCTGGGGGAGTATTGCGGAGGAAGG + anchor), 100 nM annealed; ATP concentration: 500 uM
Method in brief: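 For every switch-domain sequence, the fluorescence ratio is the mean of per-cluster values, each being summed target-cycle Cy3 intensity over summed buffer-cycle Cy3 intensity. Clusters outside 100-1000 RFU were excluded. On a modified Illumina MiSeq flow-cell, the Cy3-labelled switching-strand clusters were annealed to 100 nM quencher-labelled ATP aptamer, imaged in selection buffer and then after 15 min with 500 uM ATP at 22 °C. Five such cycles were run, with NaOH stripping and re-annealing between them.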
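Note: ATP exposure 15 min at 22 °C before imaging.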

Row | Sequence | switch fluorescence ratio
1 | TTTGTAAGGG | 0.986 ± 0.021
2 | TTTGTAAGTG | 0.988 ± 0.018
3 | TTTGTACATT | 1.01 ± 0.011
4 | TTTGTACTCG | 1.01 ± 0.011
5 | TTTGTAGGCC | 0.989 ± 0.03
6 | TTTGTAGTCA | 1.05 ± 0.083
7 | TTTGTATACA | 1.01 ± 0.015
8 | TTTGTCGTTT | 1.03 ± 0.055
9 | TTTGTCTGTT | 1.03 ± 0.038
10 | TTTGTCTTC | 0.95 ± 0.015
11 | TTTGTGAGCA | 1.06 ± 0.08
12 | TTTGTGATTG | 0.985 ± 0.094
13 | TTTGTGGACT | 1.01 ± 0.031
14 | TTTGTGGGAG | 0.998 ± 0.02
15 | TTTGTGGGTG | 1.01 ± 0.019
16 | TTTGTGGTAT | 1.03 ± 0.047
17 | TTTGTGGTCG | 1.02 ± 0.031
18 | TTTGTGGTTA | 1.04 ± 0.056
19 | TTTGTGGTTT | 0.985 ± 0.043
20 | TTTGTGTAGG | 1.02 ± 0.049
21 | TTTGTGTCGT | 0.982 ± 0.053
22 | TTTGTGTCTG | 0.998 ± 0.012
23 | TTTGTTACTA | 1 ± 0.1
24 | TTTGTTAGCG | 1.01 ± 0.053
25 | TTTGTTCAT | 0.998 ± 0.028

Row | Sequence | switch fluorescence ratio
26 | TTTGTTCGTT | 1.01 ± 0.029
27 | TTTGTTGACC | 1.02 ± 0.013
28 | TTTGTTGCTT | 0.989 ± 0.012
29 | TTTGTTGGGT | 1 ± 0.022
30 | TTTGTTGTGG | 1.01 ± 0.048
31 | TTTGTTTAGA | 0.9917 ± 0.0069
32 | TTTGTTTGTT | 0.986 ± 0.02
33 | TTTTAAAAAT | 1.03 ± 0.056
34 | TTTTAAAGCA | 1.01 ± 0.03
35 | TTTTAAATGA | 1 ± 0.021
36 | TTTTAACATA | 1.02 ± 0.016
37 | TTTTAACTAC | 1.18 ± 0.15
38 | TTTTAATGAT | 0.983 ± 0.024
39 | TTTTAATTAA | 1.01 ± 0.044
40 | TTTTACACCT | 1.23 ± 0.2
41 | TTTTACAGCG | 1 ± 0.036
42 | TTTTACAGGT | 1.01 ± 0.028
43 | TTTTACATTC | 1.03 ± 0.056
44 | TTTTACCATT | 1.09 ± 0.061
45 | TTTTACCCAA | 1.04 ± 0.024
46 | TTTTACCTTG | 1.028 ± 0.01
47 | TTTTACGGTA | 1.12 ± 0.022
48 | TTTTACGTGC | 1.02 ± 0.05
49 | TTTTACGTTG | 0.995 ± 0.01
50 | TTTTACTGCA | 1.07 ± 0.073

Row | Sequence | switch fluorescence ratio
51 | TTTTACTTGC | 1.0115 ± 0.00074
52 | TTTTAGACAA | 1.18 ± 0.17
53 | TTTTAGAGCT | 1.02 ± 0.018
54 | TTTTAGAGGG | 0.982 ± 0.034
55 | TTTTAGATAT | 0.98713 ± 0.00039
56 | TTTTAGATCG | 0.997 ± 0.016
57 | TTTTAGGCGT | 0.99 ± 0.013
58 | TTTTAGGGAT | 1.03 ± 0.021
59 | TTTTAGGGGG | 1 ± 0.038
60 | TTTTAGGGTT | 1.01 ± 0.027
61 | TTTTAGTAGG | 1.04 ± 0.091
62 | TTTTAGTCT | 1.01 ± 0.023
63 | TTTTAGTCTA | 0.9809 ± 0.0021
64 | TTTTAGTGGG | 1.01 ± 0.039
65 | TTTTAGTTAA | 1.01 ± 0.03
66 | TTTTATACG | 1.36 ± 0.51
67 | TTTTATAGGT | 0.998 ± 0.017
68 | TTTTATATCC | 0.963 ± 0.028
69 | TTTTATGAGC | 1.03 ± 0.045
70 | TTTTATGGAG | 0.998 ± 0.013
71 | TTTTATGGT | 1.013 ± 0.0067
72 | TTTTATTAGT | 0.989 ± 0.044
73 | TTTTATTCTG | 1.01 ± 0.038
74 | TTTTATTGAA | 1 ± 0.03
75 | TTTTATTGTA | 0.999 ± 0.032

Row | Sequence | switch fluorescence ratio
76 | TTTTATTGTG | 1 ± 0.027
77 | TTTTATTTTA | 0.991 ± 0.039
78 | TTTTATTTTG | 1.01 ± 0.057
79 | TTTTCAACGG | 1.01 ± 0.0017
80 | TTTTCAAGGG | 0.967 ± 0.015
81 | TTTTCACTCG | 1.006 ± 0.0038
82 | TTTTCAGATG | 1.02 ± 0.015
83 | TTTTCATGGC | 1.06 ± 0.018
84 | TTTTCCTGCG | 1.65 ± 0.64
85 | TTTTCGATGT | 0.994 ± 0.042
86 | TTTTCGGGGC | 0.981 ± 0.035
87 | TTTTCGGGGG | 1 ± 0.04
88 | TTTTCGTAAT | 2.26 ± 1.9
89 | TTTTCGTAGC | 1.09 ± 0.14
90 | TTTTCGTAGG | 0.983 ± 0.011
91 | TTTTCGTC | 0.978 ± 0.03
92 | TTTTCGTGCT | 0.956 ± 0.05
93 | TTTTCGTTCG | 1.01 ± 0.059
94 | TTTTCTAGTA | 0.983 ± 0.038
95 | TTTTCTCCGA | 1.2 ± 0.26
96 | TTTTCTCCTC | 1.31 ± 0.35
97 | TTTTCTCTAG | 1.01 ± 0.055
98 | TTTTCTCTTA | 1.0182 ± 0.00039
99 | TTTTCTGGCT | 1.04 ± 0.035
100 | TTTTCTGGGG | 0.994 ± 0.032

Row | Sequence | switch fluorescence ratio
101 | TTTTCTGTGG | 0.994 ± 0.035
102 | TTTTGAACAA | 1.02 ± 0.039
103 | TTTTGAAGCC | 1.03 ± 0.014
104 | TTTTGAAGCG | 0.99 ± 0.024
105 | TTTTGACTGC | 0.977 ± 0.05
106 | TTTTGAGGGT | 0.99 ± 0.023
107 | TTTTGAGGTA | 1.05 ± 0.023
108 | TTTTGAGTAC | 1.01 ± 0.042
109 | TTTTGAGTGG | 0.995 ± 0.025
110 | TTTTGAGTTT | 0.984 ± 0.028
111 | TTTTGATATC | 0.997 ± 0.012
112 | TTTTGATTAC | 1.01 ± 0.065
113 | TTTTGCAAGC | 1.14 ± 0.13
114 | TTTTGCATTC | 1.1 ± 0.053
115 | TTTTGCATTT | 1.04 ± 0.055
116 | TTTTGCCATA | 1.02 ± 0.042
117 | TTTTGCCCGA | 0.988 ± 0.029
118 | TTTTGCCGAG | 0.994 ± 0.011
119 | TTTTGCCTTC | 1.09 ± 0.027
120 | TTTTGCCTTG | 0.967 ± 0.043
121 | TTTTGCGGAT | 1.04 ± 0.015
122 | TTTTGCTCGG | 0.998 ± 0.025
123 | TTTTGCTTGG | 1.01 ± 0.015
124 | TTTTGGAAAT | 1.02 ± 0.027
125 | TTTTGGACGG | 1.01 ± 0.032

Row | Sequence | switch fluorescence ratio
126 | TTTTGGAGC | 1.05 ± 0.068
127 | TTTTGGATTG | 0.986 ± 0.026
128 | TTTTGGCAGA | 0.982 ± 0.047
129 | TTTTGGCATG | 1.03 ± 0.034
130 | TTTTGGCGC | 1.002 ± 0.0012
131 | TTTTGGCTAT | 1.017 ± 0.0015
132 | TTTTGGGAAA | 0.989 ± 0.044
133 | TTTTGGGACG | 0.993 ± 0.082
134 | TTTTGGGATG | 0.978 ± 0.033
135 | TTTTGGGATT | 1.03 ± 0.06
136 | TTTTGGGGCT | 1.01 ± 0.03
137 | TTTTGGGGGC | 1.01 ± 0.023
138 | TTTTGGGTC | 0.999 ± 0.034
139 | TTTTGGGTCG | 1.03 ± 0.025
140 | TTTTGGGTGA | 1.01 ± 0.024
141 | TTTTGGTACT | 0.984 ± 0.027
142 | TTTTGGTAGC | 1.01 ± 0.017
143 | TTTTGGTCGA | 1.03 ± 0.022
144 | TTTTGGTGCT | 1.01 ± 0.03
145 | TTTTGGTGGT | 1.01 ± 0.024
146 | TTTTGGTGTG | 1.01 ± 0.026
147 | TTTTGTAAGC | 1.04 ± 0.083
148 | TTTTGTAAGT | 0.992 ± 0.029
149 | TTTTGTACAT | 0.99 ± 0.039
150 | TTTTGTACGT | 1.02 ± 0.041

Row | Sequence | switch fluorescence ratio
151 | TTTTGTATAT | 1.01 ± 0.025
152 | TTTTGTCGTT | 1.03 ± 0.095
153 | TTTTGTGAGC | 0.996 ± 0.021
154 | TTTTGTGGAT | 1.05 ± 0.053
155 | TTTTGTGGTG | 1.001 ± 0.007
156 | TTTTGTGTCA | 0.969 ± 0.029
157 | TTTTGTGTGG | 1.01 ± 0.026
158 | TTTTGTTATT | 1.03 ± 0.068
159 | TTTTGTTGAT | 1.03 ± 0.052
160 | TTTTTAAAAC | 1.003 ± 0.0097
161 | TTTTTAAAG | 1.022 ± 0.0083
162 | TTTTTAACTA | 0.993 ± 0.012
163 | TTTTTAACTT | 0.995 ± 0.022
164 | TTTTTACAAT | 1.01 ± 0.039
165 | TTTTTACGCA | 1.154 ± 0.0098
166 | TTTTTACGTT | 1.03 ± 0.021
167 | TTTTTAGACT | 1 ± 0.038
168 | TTTTTAGATA | 0.973 ± 0.038
169 | TTTTTAGATC | 1.004 ± 0.0088
170 | TTTTTAGGAC | 0.997 ± 0.014
171 | TTTTTAGGG | 0.983 ± 0.034
172 | TTTTTAGTCT | 1 ± 0.027
173 | TTTTTATGTT | 0.99 ± 0.032
174 | TTTTTATTTA | 0.991 ± 0.025
175 | TTTTTCAAAT | 1.04 ± 0.076

Row | Sequence | switch fluorescence ratio
176 | TTTTTCACG | 1 ± 0.04
177 | TTTTTCCACG | 1.03 ± 0.018
178 | TTTTTCCCCA | 1.05 ± 0.042
179 | TTTTTCCCTT | 1.01 ± 0.034
180 | TTTTTCGAAG | 0.9894 ± 0.0098
181 | TTTTTCGGAT | 1.05 ± 0.14
182 | TTTTTCGGGC | 1.08 ± 0.24
183 | TTTTTCGGGT | 0.974 ± 0.018
184 | TTTTTCTACA | 1.11 ± 0.12
185 | TTTTTCTCGA | 0.991 ± 0.034
186 | TTTTTCTGTT | 0.984 ± 0.039
187 | TTTTTGAAAA | 1.018 ± 0.0055
188 | TTTTTGACTT | 1.005 ± 0.0092
189 | TTTTTGAGTG | 0.976 ± 0.02
190 | TTTTTGATCG | 0.997 ± 0.039
191 | TTTTTGATCT | 0.998 ± 0.016
192 | TTTTTGCACC | 1.04 ± 0.037
193 | TTTTTGCATA | 1.25 ± 0.26
194 | TTTTTGCTCG | 1 ± 0.03
195 | TTTTTGGAGT | 1.05 ± 0.07
196 | TTTTTGGCAC | 0.982 ± 0.029
197 | TTTTTGGCTC | 1.01 ± 0.019
198 | TTTTTGGGAC | 1.03 ± 0.045
199 | TTTTTGGGCA | 0.99 ± 0.013
200 | TTTTTGGGCG | 1.01 ± 0.022
